# Patent US20140193400A1 (ESBATECH AN ALCON BIOMEDICAL RESEARCH UNIT, published 2014)
# Changes are numbered by the printed parent chain. Where “and” joins values, the source holds several entries; their conditions need not be identical. Equal entries are not always repeated. Where two headings read alike, the source gives them in different places.
# B1: EP6_min (scFv)
# scFv: EIVMTQSPSTLSASVGDRVIITCQASESIYSGLAWYQQKPGKAPKLLIYQASTLASGVPSRFSGSGSGAEFTLTISSLQPDDFATYYCQQGFGTSNVENPFGQGTKLTVLGGGGGSGGGGSGGGGSGGGGSEVQLVESGGGLVQPGGSLRLSCAASGFSLSRYGVSWVRQAPGKGLEWVSTIGEAGRAYYANWARSRFTISRDNSKNTLYLQMNSLRAEDTAVYYCAKGEVFNNGWGAFNIWGQGTLVTVSS
# notes: scFv NH2-VL-(GGGGS)4-VH-COOH; also called 673
# B2: EP6_max (scFv)
# scFv: B1 scFv with A69T, E70D, T74A, A154T, A155V, S180G, F198S, N204T, L209V, K228R
# notes: scFv NH2-VL-(GGGGS)4-VH-COOH; also called 674
# B3: EP15_min (scFv)
# scFv: EIVMTQSPSTLSASVGDRVIITCQASENIYTSLAWYQQKPGKAPKLLIYSASTLASGVPSRFSGSGSGAEFTLTISSLQPDDFATYYCQQGFATSNVENPFGQGTKLTVLGGGGGSGGGGSGGGGSGGGGSEVQLVESGGGLVQPGGSLRLSCAASGFTFSRYGVSWVRQAPGKGLEWVSAIGETGRAYYANWAKSRFTISRDNSKNTLYLQMNSLRAEDTAVYYCAKGEEFNNGWGAFNIWGQGTLVTVSS
# notes: scFv NH2-VL-(GGGGS)4-VH-COOH; also called 1073
# B4: EP43_max (scFv)
# scFv: EIVMTQSPSTLSASVGDRVIIKCQASQSISDWLAWYQQKPGKAPKLLIYGASRLASGFPSRFSGSGSGAEFTLTISGLEPADFATYYCQQGWSDSYVDNLFGQGTKLTVLGGGGGSGGGGSGGGGSGGGGSEVQLVESGGGLVQPGGSLRLSCTVSGFSLSSGAMSWVRQAPGKGLEWVGVIISSGATYYASWAKGRFTISKDTSKNTVYLQMNSLRAEDTAVYYCARGGPDDSNSMGTFDPWGQGTLVTVSS
# notes: scFv NH2-VL-(GGGGS)4-VH-COOH; also called 676
# B5: EP43_maxDHP (scFv)
# scFv: B4 scFv with L142S, V223T, L248S
# B6: EP43_maxmin (scFv)
# scFv: B4 scFv with T154A, V155A, G180S, K202R, T204N, V209L, R228K
# notes: also called 959
# B7: EP43_min (scFv)
# scFv: EIVMTQSPSTLSASVGDRVIITCQASQSISDWLAWYQQKPGKAPKLLIYGASRLASGVPSRFSGSGSGAEFTLTISSLQPDDFATYYCQQGWSDSYVDNLFGQGTKLTVLGGGGGSGGGGSGGGGSGGGGSEVQLVESGGGLVQPGGSLRLSCAASGFSLSSGAMSWVRQAPGKGLEWVSVIISSGATYYASWAKGRFTISRDNSKNTLYLQMNSLRAEDTAVYYCAKGGPDDSNSMGTFDPWGQGTLVTVSS
# notes: scFv NH2-VL-(GGGGS)4-VH-COOH; also called 705
# B8: EP43_minmax (scFv)
# scFv: B4 scFv with K22T, F58V, G77S, E79Q, A81D
# notes: Min graft VL with max graft VH; also called 958
# B9: ESBA105 (scFv)
# chain: MADIVMTQSPSSLSASVGDRVTLTCTASQSVSNDVVWYQQRPGKAPKLLIYSAFNRYTGVPSRFSGRGYGTDFTLTISSLQPEDVAVYYCQQDYNSPRTFGQGTKLEVKRGGGGSGGGGSGGGGSSGGGSQVQLVQSGAEVKKPGASVKVSCTASGYTFTHYGMNWVRQAPGKGLEWMGWINTYTGEPTYADKFKDRFTFSLETSASTVYMELTSLTSDDTAVYYCARERGDAMDYWGQGTLVTVSS
# B10: EP34_max (scFv)
# scFv: EIVMTQSPSTLSASLGDRVIITCQSSQSVYGNIWMAWYQQKSGKAPKLLIYQASKLASGVPSRFSGSGSGAEFSLTISSLQPDDFATYYCQGNFNTGDRYAFGQGTKLTVLGGGGGSGGGGSGGGGSGGGGSEVQLVESGGGLVQPGGSLRLSCTASGFTISRSYWICWVRQAPGKGLEWVACIYGDNDITPLYANWAKGRFPVSTDTSKNTVYLQMNSLRAEDTAVYYCARLGYADYAYDLWGQGTLVTVSS
# notes: scFv NH2-VL-(GGGGS)4-VH-COOH; also called Epi34max; 791
# B11: EP15_max (scFv)
# scFv: EIVMTQSPSTLSASVGDRVIITCQASENIYTSLAWYQQKPGKAPKLLIYSASTLASGVPSRFSGSGSGTEFTLTISSLQPDDFATYYCQQGFATSNVENPFGQGTKLTVLGGGGGSGGGGSGGGGSGGGGSEVQLVESGGGSVQPGGSLRLSCTVSGFSLSRYGVSWVRQAPGKGLEWVGAIGETGRAYYANWAKSRSTISRDTSKNTVYLQMNSLRAEDTATYYCARGEEFNNGWGAFNIWGQGTTVTVSS
# notes: scFv NH2-VL-(GGGGS)4-VH-COOH; also called 1074
# B12: EP19_max (scFv)
# scFv: EIVMTQSPSTLSASVGDRVIITCQASDNIYRGLAWYQQKPGKAPKLLIYDASTLQSGVPSRFSGSGSGTQFTLTISSLQPDDFATYYCLGVYGYSSDDGAAFGQGTKLTVLGGGGGSGGGGSGGGGSGGGGSEVQLVESGGGLVQPGGSLRLSCTVSGFSLNSNEISWVRQAPGKGLEWVGYIGNGGMTHYASWAKGRFTISRDTSKNTVYLQMNSLRAEDTAVYYCASSVEYTDLYYLNIWGQGTLVTVSS
# notes: also called 1007; EP19maxmod
# B13: EP35_max (scFv)
# scFv: EIVMTQSPSTLSASVGDRVIITCQASQSISNLLAWYQQKPGKAPKLLIVAASKLASGVPSRFSGSGSGTEFTLTISSLQPDDFATYYCQQGWSHTNVDNTFGQGTKLTVLGGGGGSGGGGSGGGGSGGGGSEVQLVESGGGSVQPGGSLRLSCTASGFSFSVGYWICWVRQAPGKGLEWVACIDAGTSGGTYYATWAKGRFTISKDTSKNTVYLQMNSLRAEDTATYYCARGVSSNGYYFKLWGQGTTVTVSS
# notes: scFv NH2-VL-(GGGGS)4-VH-COOH; also called 1089
# B14: EP1_max (scFv)
# scFv: EIVMTQSPSTLSASVGDRVIITCQSTESVYKNNYLAWYQQKPGKAPKLLIYDASTLASGVPSRFSGSGSGTEFTLTISSLQPDDFATYYCAGYYRSGSGTANGSFGQGTKLTVLGGGGGSGGGGSGGGGSGGGGSEVQLVESGGGSVQPGGSLRLSCTVSGIDLSNDAISWVRQAPGKGLEWVAYISDWSIRYYANWAQGRFTISKDTSKNTVYLQMNSLRAEDTATYYCARGAPGAGDNGIWGQGTTVTVSS
# notes: scFv NH2-VL-(GGGGS)4-VH-COOH; also called 1072
# B15: EP42_max (scFv)
# scFv: B14 scFv with S98F, S165R, A184S, S190G, R192K, N196S, A198V, Q199K
# notes: scFv NH2-VL-(GGGGS)4-VH-COOH; also called 1077
# B16: EP42_min (scFv)
# scFv: EIVMTQSPSTLSASVGDRVIITCQSTESVYKNNYLAWYQQKPGKAPKLLIYDASTLASGVPSRFSGSGSGAEFTLTISSLQPDDFATYYCAGYYRSGFGTANGSFGQGTKLTVLGGGGGSGGGGSGGGGSGGGGSEVQLVESGGGLVQPGGSLRLSCAASGFTFRNDAISWVRQAPGKGLEWVSYISDWGIKYYASWVKGRFTISRDNSKNTLYLQMNSLRAEDTAVYYCAKGAPGAGDNGIWGQGTLVTVSS
# notes: scFv NH2-VL-(GGGGS)4-VH-COOH; also called 1076
# Experiments:
# [1] = molecular target: T1, recombinant human TNFalpha (human, UniProt P01375 77-233); assay: cell-based or functional assay
# [2] = molecular target: T1, recombinant human TNFalpha; assay: cell-based or functional assay; remark: listed apart in the source
# [3] = molecular target: T2, Human TNFa N-his trimers (His-tagged TNF, produced at ESBATech) (human, UniProt P01375 77-233); assay: SPR (BIAcore T100), His-tagged human TNF captured on NTA chip, scFv as analyte
# T2 construct: Captured as trimers on a Ni-NTA sensor chip by the N-terminal His tags in the Biacore assay of the general methods; also called human TNFα; human TNF alpha; not shown: N-terminal His tag
# Protocol: (§1) For binding affinity measurements at pH5 and pH 7.4 (data not shown), surface Plasmon resonance measurements with BIAcore™-T 100 were employed using a NTA sensor chip and His-tagged TNF (produced at ESBATech). The surface of the NTA sensor chip consists of a carboxymethylated dextran matrix pre-immobilized with nitrilotriacetic acid (NTA) for capture of histidine tagged molecules via Ni2+NTA chelation. Human TNFa N-his trimers (5 nM) are captured by the nickel via their N-terminal his-tags and ESBA105 (analyte) is injected at several concentrations ranging from 30 nM to 0.014 nM in 3 fold serial dilution steps. At the regeneration step, the complex formed by nickel, ligand and analyte is washed away. This allows the use of the same regeneration conditions for different samples. The response signal is generated by surface Plasmon resonance (SPR) technology and measured in resonance units (RU). All the measurements are performed at 25° C. Sensorgrams were generated for each anti-TNF scFv sample after in-line reference cell correction followed by buffer sample subtraction. The apparent dissociation rate constant (kd), the apparent association rate constant (kₐ) and the apparent dissociation equilibrium constant (KD) were calculated using one-to-one Langmuir binding model with BIAcore T100 evaluation Software version 1.1.
# [4] = molecular target: T1, recombinant human TNFalpha; assay: cell-based or functional assay; remark: listed apart in the source
# [5] = molecular target: T1, recombinant human TNFalpha; assay: cell-based or functional assay; remark: listed apart in the source
# [6] = molecular target: T1, recombinant human TNFalpha; assay: cell-based or functional assay; remark: listed apart in the source
# [7] = molecular target: T2, Human TNFa N-his trimers (His-tagged …); assay: SPR (BIAcore), His-tagged human TNF captured on NTA chip, scFv as analyte; units taken from paragraph 184
# Protocol: as §1
# T1 sequence (P01375 77-233 limits assumed): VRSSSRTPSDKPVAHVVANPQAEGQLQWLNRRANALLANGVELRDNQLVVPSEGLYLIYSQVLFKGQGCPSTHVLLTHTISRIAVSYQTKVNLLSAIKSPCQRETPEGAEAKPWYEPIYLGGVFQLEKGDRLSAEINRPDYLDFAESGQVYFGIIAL
# T2 sequence (P01375 77-233 limits assumed): as above
molecule,measurement,setting,value
Adalimumab (antibody),"IC50, block of cytotoxic activity (murine L929 cells, 1000 pg/ml TNF)",[1],8.46 ng/mL
same,"IC50, block of cytotoxic activity (human Kym-1 cells, 10 pg/ml TNF)",[2],66.2 ng/mL
same,"IC50, block of cytotoxic activity (murine L929 cells, 1000 pg/ml TNF)",[2],8.45 ng/mL
B1,Kd,[3],106 nM
same,koff,[3],0.00494 s⁻¹
same,kon,[3],46700 M⁻¹ s⁻¹
B2,"L929* [EC50-E105/EC50-X], potency relative to ESBA105",[4],"1.1 ratio EC50 ESBA105/EC50 X (mass units, ng/ml)"
same,Kd,[3],0.512 nM
same,koff,[3],0.000145 s⁻¹
same,kon,[3],284000 M⁻¹ s⁻¹
B3,Kd,[3],262 nM
same,koff,[3],0.041 s⁻¹
same,kon,[3],157000 M⁻¹ s⁻¹
B4,"EC50, L929 potency assay",[5],1 ng/mL
same,"L929* [EC50-E105/EC50-X], potency relative to ESBA105",[4],"6.4 ratio EC50 ESBA105/EC50 X (mass units, ng/ml)"
same,"L929* [EC50-E105/EC50-X], potency relative to ESBA105",[6],"6.4 ratio EC50 ESBA105/EC50 X (mass units, ng/ml)"
same,Kd,[3],0.251 nM
same,koff,[3],4.48e-05 s⁻¹
same,kon,[3],178000 M⁻¹ s⁻¹
same,Kd,[7],0.249 nM
same,koff,[7],5.68e-05 s⁻¹
same,kon,[7],228000 M⁻¹ s⁻¹
B5,"L929* [EC50-E105/EC50-X], potency relative to ESBA105",[6],"6.7 ratio EC50 ESBA105/EC50 X (mass units, ng/ml)"
same,Kd,[7],0.116 nM
same,koff,[7],2.73e-05 s⁻¹
same,kon,[7],235000 M⁻¹ s⁻¹
B6,Kd,[7],36.6 nM
same,koff,[7],0.00533 s⁻¹
same,kon,[7],146000 M⁻¹ s⁻¹
B7,Kd,[3],5540 nM
same,koff,[3],0.0298 s⁻¹
same,kon,[3],5380 M⁻¹ s⁻¹
B8,"L929* [EC50-E105/EC50-X], potency relative to ESBA105",[6],"1.6 ratio EC50 ESBA105/EC50 X (mass units, ng/ml)"
same,Kd,[7],0.868 nM
same,koff,[7],0.000198 s⁻¹
same,kon,[7],228000 M⁻¹ s⁻¹
B9,"EC50, L929 potency assay",[5],6.5 ng/mL
B10,"IC50, block of cytotoxic activity (human Kym-1 cells, 10 pg/ml TNF)",[5],0.69 ng/mL and 0.63 ng/mL
same,"IC50, block of cytotoxic activity (murine L929 cells, 1000 pg/ml TNF)",[5],1.03 ng/mL and 1.04 ng/mL
same,"L929* [EC50-E105/EC50-X], potency relative to ESBA105",[4],"10.5 ratio EC50 ESBA105/EC50 X (mass units, ng/ml)"
same,Kd,[3],0.0286 nM
same,koff,[3],1.68e-05 s⁻¹
same,kon,[3],586000 M⁻¹ s⁻¹
B11,"L929* [EC50-E105/EC50-X], potency relative to ESBA105",[4],"0.39 ratio EC50 ESBA105/EC50 X (mass units, ng/ml)"
same,Kd,[3],1.48 nM
same,koff,[3],0.00226 s⁻¹
same,kon,[3],1.53e+06 M⁻¹ s⁻¹
B12,"L929* [EC50-E105/EC50-X], potency relative to ESBA105",[4],"0.6 ratio EC50 ESBA105/EC50 X (mass units, ng/ml)"
same,Kd,[3],2.91 nM
same,koff,[3],6.54e-05 s⁻¹
same,kon,[3],22500 M⁻¹ s⁻¹
B13,"L929* [EC50-E105/EC50-X], potency relative to ESBA105",[4],"5.2 ratio EC50 ESBA105/EC50 X (mass units, ng/ml)"
same,Kd,[3],0.194 nM
same,koff,[3],0.00015 s⁻¹
same,kon,[3],772000 M⁻¹ s⁻¹
B14,Kd,[3],56.9 nM
same,koff,[3],0.00063 s⁻¹
same,kon,[3],11100 M⁻¹ s⁻¹
B15,Kd,[3],3.46 nM
same,koff,[3],0.000419 s⁻¹
same,kon,[3],121000 M⁻¹ s⁻¹
B16,Kd,[3],58.7 nM
same,koff,[3],0.00835 s⁻¹
same,kon,[3],142000 M⁻¹ s⁻¹
